The text below walks through data of the nanobody polyreactivity screen of Harvey et al. (2022).

A short description of the data set: yeast display, Sf9 membrane polyspecificity reagent, FACS + sequencing; frameworks hold sequencing errors. A digest of the protocol: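 Genes from sorted yeast were amplified by colony PCR, read by MiSeq 2 × 250 sequencing and filtered on CDR length. These cells carried a synthetic nanobody library in Saccharomyces cerevisiae BJ5465 and were sorted by FACS into low and high (top ~1%) gates on anti-HA and streptavidin fluorescence. Polyreactivity is labelled according to the gate of origin.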
Consider “QVQLVESGGGLVQAGGSLRLSCAASGSTLAVYSMGWYRQAPGKEREFVAAISWSGVSTYYADSVKGRFTISRDNAKNTVYLQMNSLKPEDTAVYYCAAKRVRALYGGSEGGYWGQGTQVTVSS”, for which the “polyreactivity (PSR sort gate)” value was “low polyreactivity”. As for “QVQLVESGGGLVQAGGSLRLSCAASGRIFSPNAMGWYRQAPGKERELVAAITRGGSTNYADSVKGRFTISRDNAKNTVYLQMNSLKPEDTAVYYCAAQLAKTIRGRGYNSWGQGTKVTVSS”, the entry is “low polyreactivity”; as for “QVQLVESGGGLVQAGGSLRLSCAASGSNFVEYAMGWYRQAPGKERELVAGISSGGITSYADSVKGRFTISRDNAKNTVYLQMNSLKPEDTAVYYCATDPYKWFYSSYYLLQEVEYWGQGTQVTVSS”, “low polyreactivity”; as for “QDQLVESGGGLVQAGGSLRLSCAASGTFRRYAMGWYRKAPGKERELVAAISSGGGSTYYADSVKGRFTISRDNAKNTVYLQMNSLKPEDTAVYDCAAANSYTFRYGSWGQGTQVTVSS”, “high polyreactivity”. As for “QVQLVESGVGLVKAGGILRLSCAASGFTFASNVMGWSRQAPGKERELVAAITSGASTNYADSVKGRFTISRDNAKNTVYLQMNSLKPEDTAVYYCAAGRQWYVFYEFDYWGQGTQVTVSS”, the entry is “high polyreactivity”; as for “QVQLVESGGGLVQAGGSLRLSCAASGNTFYGYAMGWYRQAPGKDRELVASITLSGDSTYYADSVKGRFTISRDNAKNTVYLQMNSLKQEDTAVYYCAGVYTYPLGYYHYTYDYWGQGTQVTVSS”, “low polyreactivity”. Regarding “QVQLVESGVGLVQAVGSHRLSCAASGFTIINNDMGWYRQAPGKEREFVAAISDSDGTTYYADSVKGRFSISRDNAKNTVYLQMNSLKPEDTAVYYCAADVVPTWEDEYWGQGTQVTVSS”, the “polyreactivity (PSR sort gate)” value was “low polyreactivity”. With “QVQLVESGGGLDQSGGSLRISCAASGSTFYRNAMGWYRQAPGKEREFVAAITTDDSTYYADSVKGRFTISRDNAKNTVYLQMNSLKPEDTAVYYCAAGLEGKATWAAVGGYDYWGQGTQVTVSS”, the “polyreactivity (PSR sort gate)” value is recorded as “low polyreactivity”. As for “QVQLVESGGGLVQAGGSLRLSCAASGSTFYYYAMGWYRQAPGKERELVAAINSSGGNTYYADSVKGRFTISRDNAKNTVYLQMNSLKPEDTAVYYCATGQIAYSSYGPFDYWGQGTQVTVSS”, the entry is “low polyreactivity”; as for “QVQLVESGGGLVQAGGSLRLSCAASGFIFGYNGMGWYRQAPGKERELVAYADSVKGRFTISRDNAKNTVYLQMNSLKPEDTAVYFCAADRGYVWRYDYWGQGTQVTVSS”, “low polyreactivity”.

As for “QVQLVESGGGLVQAGGSLRLSCAASGLTFWRYTMGWYRPAPGKERELVAVITYRGGSTYYADSVKGRFTISRDYAKNTVYLQMNSLKPEDTAVYYCAAGLSTYGLTYDYWGQGTQVTVSS”, the “polyreactivity (PSR sort gate)” value is “high polyreactivity”. As to “QVQLVESGGGLVQAGGSLRLSCAASGRTFYQYAMGWYRQAPGKERELVAAISKSGRRTYYADSVKGRFTISRDNAKNTVYLQINSLKPEDTAVYYCNAARYLTRWGRFYYWGEGTQVTVSS”, the “polyreactivity (PSR sort gate)” value was “high polyreactivity”. Take “QFQLVESGGGLVQAGGSLRLSCAASGLTFVAYAMGWYRQAPGKEMELVAAITRRGGSTYYADSVKGRFTISRDNEKNPVSLQMNSLKPEDTAVYYCAAEGWYSRNPGFDYWGQGTQVTVSS”: the “polyreactivity (PSR sort gate)” value is “high polyreactivity”. Regarding “QVQLGESGGGLVQEGGSLRLSCAASGRILSRYAKGWYRQAPGKERELVAAISRSGGSTYYADSVKGRFTISRDNAKNTVYLQMNSLKPEDTAVYYWARDVSLSTGYDYWGQGTQVTVSS”, the “polyreactivity (PSR sort gate)” value was “high polyreactivity”. For the sequence “QVQLVESGGGLVQAGGSLRLSCAASGSTFLSNAMGWYRQAPGKERELVASINWIGGSTRYADSVKGRFTISRDNAKNTVYLQMNSLKPEDTAVYYCAVELWWKWPFYYWGQGTQVTVSS”, the “polyreactivity (PSR sort gate)” value is listed as “high polyreactivity”.

Regarding “QVQLVESGGGLVQAGGSLRLSCAASGRTFSLYAMGRYRQAPGKERELVAGISSSGGSTYYADSVKGRFTISRDNAKNTVYLQMNSLKQEDTAFYYCAAYRNTVIRNSDYWGQGTQVTVSS”, the “polyreactivity (PSR sort gate)” value is recorded as “high polyreactivity”. Then “QVQLVESGGGLVLAGGSLRLSCAASGRTFRSYAMGWYRQAPGKERELVAAISSGGSTNYADSVKGRFTISRDNAKNTVYLQMNSLKPEDTAVYYCAATFQLYRFIGYEYWGQGTQVTVSS”, with “high polyreactivity”; and “QVQLVESGGGLVQAGGSLRLSCAASGFTFKYYAMGWYRQAPGKERELVAVISSSGGSTYYADSVKGRFTISRDNAKNTVYLQMNSLKPEDTAVYYCNTDAYWHRQQYDYWGQGTQVTVSS”, with “low polyreactivity”. For “QVQLEESGGGLVQAGGSHRLSCAASGITFSLYAMGWYRQAPGKERELVATIDSGGSTNYADSVKGRFTISRDNAKNTVYLQMNSLIPEDTAVYYCAADGVWYYYDMDYWGQGTQVTVSS”, the “polyreactivity (PSR sort gate)” value is “low polyreactivity”. As for “QVQLVESGGGLVQAGGSLRLSCAASGFTFGRYAMGWYRQAPGKERELVAAISFSGGRTYYADSVKGRFTISRDNAKNTVYLQMNSLKPEDTAVYYCNTAYWYSLYDYWGQGTQVTVSS”, the entry is “high polyreactivity”; as for “QVQLVESGGGLVQAGGSLRLSCAASGSIFLQNAMGWYRQAPGKERELVAAITNGGSTNYADSVKGRFTISRDNAKNTVYLQMNSLKPEDTAVYYCAVVRSYRGINDYWGQGTQVTVSS”, “low polyreactivity”; as for “QVQLVESGGGLVQAGGSLRLSCAASGSTFSANTKGWYRQAPGTERELVAGITNTGDTYYADSVKGRFTISRDNAKNTVYLQMNSLKPEDTAVYYCAADSWRRTDGAYWSTVYYWGQGTQVTVSS”, “low polyreactivity”. Then “QVQIVESGGGLVQARGSLRLSFAASGFTFSHYAMGWYRQAPGKERELVAAISASGGRTYFADSVKGRFTISRDNAKNTVYVQMNSLKPEDTAVYYCAAKLYDCGGRYWYVYWGQGTQVTVSS”, with “high polyreactivity”. As to “QVQLVESGGGLVQAGGSLRLSCAASGFTFSYNAMGWYRQAPGKERELVAAISSGGRTHYADSVKGRFTISRDNAKNTVYLQMNILKPEDTAVYYCNAQKYPRYSRTSGRNYNYWGQGTQVTVSS”, the “polyreactivity (PSR sort gate)” value is reported as “high polyreactivity”.

In the case of “QVQLVESGGGLVQAGGSLRLSCAASGSIFIYYTMGWYRQAPGKERELVAAISWRGGRTYYADSVKGRFTISRDNAKNTVYLQMNSLKPEDTAVYYCNAQPSVYYGRWGLNYGYWGQGTQVTVSS”, the “polyreactivity (PSR sort gate)” value is “high polyreactivity”. Then “QVQLVESGGGLVQAGGSLRLSCAASGSTFSTYVMGWYRQAPGKERELVATISYSSDSTYYADSVKVRFTISRDNAKNTVYLQMNSLKPEDSAVYYCNAARFTRRDYWGQGTQVTVSS”, with “high polyreactivity”; and “QVQLVQSGGGLVQEGGSLRLSCAASGSTLSIYAMGWYRQAPGKERELVASITTSGSSTYYADSVKGRFTISRDNAKNTVYLQMNSLKPEDTAVYYCAKRKSYRSQPWGYDYWGQGTQVTVSS”, with “high polyreactivity”; and “QVQLVESGGGLVQAGGSLRLSCAASGSIFNYNDMGWYRQAPGKERELVATITNGGGTNYADSVKGRFTISRDNAKNTVFLQMNSLKPEDTAVYYCAAGRSGWGYDSWGQGTQVTVSS”, with “low polyreactivity”.

As to “QVQLVESGGGLVQAGGSLRLSCAASGYTIYRYAMGWYRQAPGNERELVAAISSAGTTNYADSVKGRFTISRDNAKNTVYLQINSLKPEDTAVYYCNKRGRNHNSLKYGYWGQGTQVTVSS”, the “polyreactivity (PSR sort gate)” value is reported as “high polyreactivity”. As for “PVQLVESGGGFVQAGGSLRLSCAASGFTFYVNAMGWYRQAPGKERELVAAISGSGGSTYYADSVKGRFTISRDNAKNTVYLQMNSLKPEDTAGYYCAADAYNPPYWDDPYDYWGQGTQVTVSS”, the entry is “high polyreactivity”; as for “QVQLVESGGGLVQAGGSLRLSCAASGRIIRINAMGWYRQAPGKERELVAAITRGGTTYADSVKGRFTISRDNAKNTVYLQMNSLKPEDTAVYYCNARTGRSPTGFRYWGQGTQVTVSS”, “high polyreactivity”. Then “QVQLVESGGGLVQAGGSLRLSCAASGRTFVTYAMGWYRQAPGKERELVAVITNGGGTYYADSVKGRFTISRDNAKNTVYLQMNSLKPEDTALYYCNNDRYGLRRWVYSYLGGYDYWGQGTQVTVSS”, with “low polyreactivity”; and “QVQLVESGGGLVQAGGSLRLSCGASGSTSKYYAMGWYRQAPGKERELVAAITWSDVSTYFADSVKGRFTISRDNAKHNVYLQMNSLKPEDTAVYYCNAGYDYWGQGTQVTVSS”, with “low polyreactivity”; and “QVQLVESGGGLVQAGGSLRLSCAASGRTFWYYAMGWYRPAPGKERELVATITGGARTTYADSVKGRFTISRDNAKNTVYLQMNSLKPEDTAVYYCARARNSVKRGYYYWGQGTQVTVSS”, with “high polyreactivity”.

On to “QVQLVESGGGLVQAGGSLRLSCAASGSIFISYAMGWYRQAPGKERELVAAISRSAGRTYYADSVKGRFTISRDNAKNTVYLQMNSLQPEDTAVYYCAASGYKNGVYTYGYWGQGTQVTVSS”, for which the “polyreactivity (PSR sort gate)” value is given as “high polyreactivity”. Regarding “QVQLVESGGGLVQAGGSLRLSCAASGSIITPYAMGWYRQAPGKERELVAAISGRGGSTYYADSVKGRFTISRDNAKNTVYLQMNSLKPEDTAVFFCAAKRSGGQGQGYGYWGQGTQVTVSS”, the “polyreactivity (PSR sort gate)” value is recorded as “high polyreactivity”. For the sequence “QVQLVESGGGLVQAGGSLRLSCAASGRTFLVYAMGWYRQAPGKERELVAAISSDGSTNYADSVKGRFTISRDNAKNTVYLQMNSLKPEDTAVYYCARDGRTEHRGFDYWGQGTQVTVSS”, the “polyreactivity (PSR sort gate)” value is “low polyreactivity”. Then “QVQLVESGGGLVQAGGSLRLSCAASGIIFPGYAMGWYRQAPGKERELVAAISSGGDTYYADSVKGRFTISRDNAKNTVYLQMNSLKPEDTAVYYCAAEYGLYAPGYYYWGQGTQVTVSS”, with “low polyreactivity”.

With “QVHLVESGGGLVQAGGSLRLSCAASGFIFGSNAMGWSRQAPGKERELVAAITYSGASTYYADSVKGRFTISRDNAKNTVYLQMNSLKPEDTAVYYCNAVYSSVVDGSEGFDYWGQGTQVTVSS”, the “polyreactivity (PSR sort gate)” value was “low polyreactivity”. Consider “QVQLVESGGGLVQAGGSLRLSCAASGSTFGHYAMGWSRQAPGKERELVAVISRSGARTYYADSVKGRFTISRDNAKNTVYLQMNSLKPEDTAVYYCATTYATNYDYWGQGTQVTVSS”, for which the “polyreactivity (PSR sort gate)” value was “high polyreactivity”. Regarding “QVQLVESGGGLVQAGGSLRLSCAASGSTFPVNAMGWYRQAPGKERELVARIRGSGGSTYYADSVKGRFTISRDNAKNTVYLQINSLKPEDTAVYYCAARYIGYSSYKYDYWGQGTQVTVSS”, the “polyreactivity (PSR sort gate)” value is recorded as “high polyreactivity”.
